Experimental data taken from patent US20220096653A1, “CONJUGATE COMPRISING LIGAND AND CEACAM5 ANTIBODY FAB FRAGMENT” (ASTELLAS PHARMA INC., priority 2019, published 2022).

T1: CEACAM5 (R&D Systems, 4128-CM-050) (human, UniProt P06731 35-685)
T1 construct: Immobilised on the ELISA plate; also called human CEACAM5
T1 sequence (looked up): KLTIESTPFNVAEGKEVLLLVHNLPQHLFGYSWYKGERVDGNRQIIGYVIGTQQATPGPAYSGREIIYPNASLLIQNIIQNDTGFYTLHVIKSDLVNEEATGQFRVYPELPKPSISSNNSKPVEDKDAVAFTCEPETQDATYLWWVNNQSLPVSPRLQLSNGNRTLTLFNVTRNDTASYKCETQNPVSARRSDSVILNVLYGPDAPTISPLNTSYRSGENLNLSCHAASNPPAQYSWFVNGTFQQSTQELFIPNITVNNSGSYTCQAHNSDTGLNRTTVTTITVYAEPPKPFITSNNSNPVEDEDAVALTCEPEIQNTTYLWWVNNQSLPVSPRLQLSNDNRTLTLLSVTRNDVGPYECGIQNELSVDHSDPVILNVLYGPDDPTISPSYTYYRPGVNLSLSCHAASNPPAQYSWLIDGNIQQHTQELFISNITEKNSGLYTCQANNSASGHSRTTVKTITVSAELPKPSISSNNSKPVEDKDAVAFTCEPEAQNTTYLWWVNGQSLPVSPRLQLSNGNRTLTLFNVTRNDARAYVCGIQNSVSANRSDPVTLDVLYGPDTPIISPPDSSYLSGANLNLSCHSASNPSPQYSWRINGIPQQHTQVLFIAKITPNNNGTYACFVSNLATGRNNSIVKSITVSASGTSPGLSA


These binders were tested against T1, CEACAM5 (R&D Systems, 4128-CM-050) (assay: ELISA on immobilised CEACAM5, 4-parameter fit, duplicate).
Protocol: Each anti-human CEACAM5 antibody Fab fragment conjugate prepared in Example 2 was subjected to ELISA to evaluate the binding activity thereof to CEACAM5. In the present test, a phosphate buffer (Nacalai Tesque Inc., 0.1 mol/L-Phosphate Buffer Solution (pH 7.2)) prepared to 10 mM by diluting 10-fold with distilled water was used as a solvent for an antigen immobilization liquid, and 20×PBS/Tween 20 Buffer (Thermo Fisher Scientific Inc., 28352) diluted 20-fold with distilled water was used as a wash liquid. In addition, for bovine serum albumin (BSA) used in the present test, 30% Bovine Serum Albumin solution (Sigma-Aldrich, Inc., A9576-50ML) was added in an appropriate proportion for use. CEACAM5 (R&D Systems, 4128-CM-050) was diluted with a 10 mM phosphate buffer (pH 7.2) to 0.1 μg/mL, and added to a Nunc MaxiSorp White 384 plate (Nunc, 4603272) at 30 μL per well, and the plate was incubated overnight at 4° C. for immobilization. The CEACAM5 immobilization liquid was removed by reverse centrifugation, and then blocking was carried out by adding a PBS/Tween 20 buffer containing 5.0% BSA. Thereafter, the blocking solution was removed by reverse centrifugation, a solution of each CEACAM5 antibody Fab² fragment conjugate described above or a Fab² fragment having no labeling portion (PB009-01) as a control at about 10000 ng/mL was diluted in 14 steps by 3-fold dilution using a PBS/Tween 20 buffer containing 1.0% BSA, and 30 μL was added per well and incubated at room temperature for 60 minutes. The plate was washed 3 times with a PBS/Tween 20 buffer, and Horseradish Peroxidase (HRP)-labeled goat anti-human IgG (H+L chain) antibody (MBL Life Sciences, 206) diluted 1000-fold using a PBS/Tween 20 buffer containing 5.0% BSA was added at 30 μL per well and incubated at room temperature for 30 minutes. The plate was washed 3 times with a PBS/Tween 20 buffer, and ECL Prime Western Blotting DETECTION Reagent (GE Healthcare, RPN2232) as a substrate was added at 30 μL per well. The substrate was incubated at room temperature for 15 minutes, and then a signal value thereof was measured using an Envision counter (PerkinElmer, Inc.).
The test for each antibody was carried out in duplicate, and an EC₅₀ value was calculated using a 4-parameter logistic curve model.

Binder | EC50
(Y-S1-X)p-Fab^2 with Y Gd/DOTA, S1 - (bond), X -Gly-Lys*-Z2(#N)- (Fab, V domains shown, labeling may sit on this chain; sites not stated; labeling portion (MW 825) on amino groups of the Fab, sites and chain not stated; 1-3 per Fab by MS, also called Ex-No 20; conjugate 20) VH: EVQLVESGGGLVQPGGSLRLSCAASGFNIRDTYMHWVRQAPGKGLEWVARIDPANGNSRYVPKFQGRFTISADTSRNTAYLQMNSLRAEDTAVYYCAPFGYYVSDYAMAYWGQGTLVTVSS VL: DIQLTQSPSSLSASVGDRVTITCRAGESVDIFGVGFLHWYQQKPGKAPKLLIYRASNLESGIPSRFSGSGSRTDFTLTISSLQPEDFATYYCQQTNEDPYTFGQGTKVEIKR | 220 pM
(Y-S1-X)p-Fab^2 with Y Gd/DOTA, S1 - (bond), X -Gly-Tyr*-CH2-C(═O)-NH-(CH2)2-Z1(#S)- (Fab, V domains shown, labeling may sit on this chain; sites not stated; labeling portion (MW 1061) on amino groups of the Fab, sites and chain not stated; 1-3 per Fab by MS, also called Ex-No 7; conjugate 7) VH: EVQLVESGGGLVQPGGSLRLSCAASGFNIRDTYMHWVRQAPGKGLEWVARIDPANGNSRYVPKFQGRFTISADTSRNTAYLQMNSLRAEDTAVYYCAPFGYYVSDYAMAYWGQGTLVTVSS VL: DIQLTQSPSSLSASVGDRVTITCRAGESVDIFGVGFLHWYQQKPGKAPKLLIYRASNLESGIPSRFSGSGSRTDFTLTISSLQPEDFATYYCQQTNEDPYTFGQGTKVEIKR | 170 pM
(Y-S1-X)p-Fab^2 with Y Gd/DOTA, S1 - (bond), X -Met-Ile-NH-(CH2)2-Z1(#S)- (Fab, V domains shown, labeling may sit on this chain; sites not stated; labeling portion (MW 1027) on amino groups of the Fab, sites and chain not stated; 1-2 per Fab by MS, also called Ex-No 8; conjugate 8) VH: EVQLVESGGGLVQPGGSLRLSCAASGFNIRDTYMHWVRQAPGKGLEWVARIDPANGNSRYVPKFQGRFTISADTSRNTAYLQMNSLRAEDTAVYYCAPFGYYVSDYAMAYWGQGTLVTVSS VL: DIQLTQSPSSLSASVGDRVTITCRAGESVDIFGVGFLHWYQQKPGKAPKLLIYRASNLESGIPSRFSGSGSRTDFTLTISSLQPEDFATYYCQQTNEDPYTFGQGTKVEIKR | 110 pM

The next lines start with the values.

EC50 | Binder
240 pM | [Gd/DOTA-NH-CH2-(1,4-Ph)-NH-C(═O)-Met-Ile-NH-(CH2)2-Z1(#N)]p-Fab^2 (Fab, V domains shown, labeling may sit on this chain; sites not stated; labeling portion (MW 1074) on amino groups of the Fab, sites and chain not stated; 1-3 per Fab by MS, also called Ex-No 18; Conjugate No. 18) VH: EVQLVESGGGLVQPGGSLRLSCAASGFNIRDTYMHWVRQAPGKGLEWVARIDPANGNSRYVPKFQGRFTISADTSRNTAYLQMNSLRAEDTAVYYCAPFGYYVSDYAMAYWGQGTLVTVSS VL: DIQLTQSPSSLSASVGDRVTITCRAGESVDIFGVGFLHWYQQKPGKAPKLLIYRASNLESGIPSRFSGSGSRTDFTLTISSLQPEDFATYYCQQTNEDPYTFGQGTKVEIKR
130 pM | (Y-S1-X)p-Fab^2 with Y Gd/DOTA, S1 -NH-CH2-(1,3-Ph)-C(═O)-, X -Gly-Tyr*-CH2-C(═O)-NH-(CH2)2-Z1(#N)- (Fab, V domains shown, labeling may sit on this chain; sites not stated; labeling portion (MW 1093) on amino groups of the Fab, sites and chain not stated; 1-3 per Fab by MS, also called Ex-No 14; conjugate 14) VH: EVQLVESGGGLVQPGGSLRLSCAASGFNIRDTYMHWVRQAPGKGLEWVARIDPANGNSRYVPKFQGRFTISADTSRNTAYLQMNSLRAEDTAVYYCAPFGYYVSDYAMAYWGQGTLVTVSS VL: DIQLTQSPSSLSASVGDRVTITCRAGESVDIFGVGFLHWYQQKPGKAPKLLIYRASNLESGIPSRFSGSGSRTDFTLTISSLQPEDFATYYCQQTNEDPYTFGQGTKVEIKR
100 pM | (Y-S1-X)p-Fab^2 with Y Gd/DOTA, S1 -NH-CH2-(1,3-Ph)-C(═O)-, X -Gly-Lys*-Z2(#N)- (Fab, V domains shown, labeling may sit on this chain; sites not stated; labeling portion (MW 958) on amino groups of the Fab, sites and chain not stated; 1-3 per Fab by MS, also called Ex-No 9; conjugate 9) VH: EVQLVESGGGLVQPGGSLRLSCAASGFNIRDTYMHWVRQAPGKGLEWVARIDPANGNSRYVPKFQGRFTISADTSRNTAYLQMNSLRAEDTAVYYCAPFGYYVSDYAMAYWGQGTLVTVSS VL: DIQLTQSPSSLSASVGDRVTITCRAGESVDIFGVGFLHWYQQKPGKAPKLLIYRASNLESGIPSRFSGSGSRTDFTLTISSLQPEDFATYYCQQTNEDPYTFGQGTKVEIKR
130 pM | [Gd/DOTA-NH-(CH2CH2O)3-CH2-C(═O)-NH-CH2-(1,3-Ph)-C(═O)-Gly-Lys*-Z2(#N)]p-Fab^2 (Fab, V domains shown, labeling may sit on this chain; sites not stated; labeling portion (MW 1147) on amino groups of the Fab, sites and chain not stated; 1-3 per Fab by MS, also called Ex-No 15; Conjugate No. 15) VH: EVQLVESGGGLVQPGGSLRLSCAASGFNIRDTYMHWVRQAPGKGLEWVARIDPANGNSRYVPKFQGRFTISADTSRNTAYLQMNSLRAEDTAVYYCAPFGYYVSDYAMAYWGQGTLVTVSS VL: DIQLTQSPSSLSASVGDRVTITCRAGESVDIFGVGFLHWYQQKPGKAPKLLIYRASNLESGIPSRFSGSGSRTDFTLTISSLQPEDFATYYCQQTNEDPYTFGQGTKVEIKR
140 pM | [Gd/DOTA-NH-CH2-(1,3-Ph)-C(═O)-Asp-Gly-Lys*-Z2(#N)]p-Fab^2 (Fab, V domains shown, labeling may sit on this chain; sites not stated; labeling portion (MW 1073) on amino groups of the Fab, sites and chain not stated; 1-3 per Fab by MS, also called Ex-No 11; Conjugate No. 11) VH: EVQLVESGGGLVQPGGSLRLSCAASGFNIRDTYMHWVRQAPGKGLEWVARIDPANGNSRYVPKFQGRFTISADTSRNTAYLQMNSLRAEDTAVYYCAPFGYYVSDYAMAYWGQGTLVTVSS VL: DIQLTQSPSSLSASVGDRVTITCRAGESVDIFGVGFLHWYQQKPGKAPKLLIYRASNLESGIPSRFSGSGSRTDFTLTISSLQPEDFATYYCQQTNEDPYTFGQGTKVEIKR
